The source of these data is patent US20130177979A1, “METHODS AND COMPOSITIONS FOR CELL PERMEABLE STAT3 INHIBITOR” (University of Central Florida Research Foundation, Inc., priority 2010, published 2013).

In general, Kd refers to the free concentration of one partner at which half of the binding sites on the other are occupied at equilibrium, for simple one-to-one binding. Read a high Kd as weaker binding.

One assay addresses T1, PEpYINQS (pY1068EGFR) (Homo sapiens, UniProt P00533).
T1 construct: the pY1068 of EGFR, PEpYINQS
Nature of the assay: SPR binding to EGFR pY1068 peptide PEpYINQS. To be noted: immobilized on sensor chip, PEpYINQS as analyte. Background: SPR reads the build-up and loss of mass on a sensor chip optically.

The target of another assay is T2, GpYIKTE (pY701Stat1) (Homo sapiens, UniProt P42224).
T2 construct: the Stat1 pY701 peptide, GpYIKTE
Nature of the assay: SPR binding to Stat1 pY701 peptide GpYIKTE. The note with it: immobilized on sensor chip, GpYIKTE as analyte.

The target of a further assay is T3, PVpYHNQP (pY1086EGFR) (Homo sapiens, UniProt P00533).
T3 construct: the pY1086 peptide of EGFR, PVpYHNQP
As to the kind of experiment: SPR binding to EGFR pY1086 peptide PVpYHNQP. The note with it: immobilized on sensor chip, PVpYHNQP as analyte.

The next assay addresses T4, GpYVKPQ (pY694Stat5) (Homo sapiens, UniProt P42229).
T4 construct: the pTyr peptide of Stat5, GpYVKPQ
Nature of the assay: SPR binding to Stat5 pTyr peptide GpYVKPQ. The note with it: immobilized on sensor chip, GpYVKPQ as analyte.

The next assay has as its target GpYLPQTV (IL-6R/gp130) (Homo sapiens, UniProt P40189, S904G). The note with it: SPR; SPI, Stat3 SH2 domain or Stat3 immobilized on sensor chip, GpYLPQTV as analyte.
The target in the next assay is T5, PpYLKTK (pY705 Stat3) (Homo sapiens, UniProt P40763).
T5 construct: the Stat3-derived pTyr705 peptide, PpYLKTK
Nature of the assay: SPR binding to Stat3-derived pTyr705 peptide PpYLKTK. The note with it: immobilized on sensor chip, PpYLKTK as analyte.

Method for GpYIKTE (pY701Stat1): (§1) Association and dissociation measurements were taken and the affinities were determined using Qdat software.
(§2) Surface plasmon resonance analysis. […] Various concentrations of pTyr peptides (analyte) in running buffer (1×PBS, 0.5% DMSO) were passed over the sensor chip to produce response signals. The response signals were referenced by subtracting the response generated by passing across a surface without the analytes. The association and dissociation rate constants were calculated using the Qdat software. The ratio of the association and dissociation rate constants was determined as the affinity (KD).
Method for GpYLPQTV (IL-6R/gp130): as §1, §2
Method for GpYVKPQ (pY694Stat5): as §1, §2
Method for PEpYINQS (pY1068EGFR): as §1, §2
Method for PVpYHNQP (pY1086EGFR): as §1, §2
Method for PpYLKTK (pY705 Stat3): as §1, §2

As to “Stat3 SH2 domain: Purified His-tagged Stat3 SH2 domain, recombinant protein expressed in BL21(DE3) cells (FISKERERAILSTKPPGTFLLRFSESSK)”, the dissociation constant (Kd) with PEpYINQS (pY1068EGFR) was found to be 0.4 µM; in the assay with GpYIKTE (pY701Stat1), 6.6 µM; in the assay with PVpYHNQP (pY1086EGFR) it was 2.6 µM; with GpYVKPQ (pY694Stat5) it was 5200 µM; in the assay with GpYLPQTV (IL-6R/gp130) it was 0.03 µM; in the assay with PpYLKTK (pY705 Stat3), 1.6 µM.

Regarding “full-length Stat3: Purified His-tagged Stat3 protein, recombinant, expressed in BL21(DE3) cells”, the Kd was 4.4 µM with GpYIKTE (pY701Stat1), 1200 µM in the assay with GpYVKPQ (pY694Stat5), 0.02 µM in the assay with GpYLPQTV (IL-6R/gp130) and 0.9 µM with PpYLKTK (pY705 Stat3).
